Experimental findings from the supplement of paper PMC10126150 are described below.

± gives the standard deviation of the averaged measurements.
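Further: ATP exposure 15 min at 22 °C before imaging.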

The data set relates to ATP. Description: switch fluorescence ratio, 500 uM ATP over buffer (Cy3 cluster intensity, sum of 5 cycles each) (fold (ratio)); higher = stronger signal-on switching upon ATP binding; sequences stand for … in TCGTCGGCAGCGTCAGATGTGTATAAGAGACAGTTTTTTTTTTTTTTTTTTTTTTTTT…TC. The following applies: aptamer strand: ATP DNA aptamer (quencher-CACCTGGGGGAGTATTGCGGAGGAAGG + anchor), 100 nM annealed; ATP concentration: 500 uM. A digest of the protocol: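 Per cluster, summed Cy3 intensity from the target cycles was divided by that from the buffer cycles to give the fluorescence ratio, then averaged per switch-domain sequence. Clusters outside 100-1000 RFU were excluded. The Cy3-labelled switching-strand clusters, on a modified Illumina MiSeq flow-cell, were annealed to 100 nM quencher-labelled ATP aptamer and imaged in selection buffer, then after 15 min with 500 uM ATP at 22 °C, for five cycles with NaOH stripping and re-annealing between them.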
For the sequence TGGTTGCAGG, the switch fluorescence ratio worked out at 1.05 ± 0.042.
The result for TGAAGGAGGG reads 1.02 ± 0.06; that for GGCTGCCGGG, 1.02 ± 0.025.
The result for CAACGCGCGG reads 0.995 ± 0.045; that for TTGATAAAAG, 1.03 ± 0.08.
With TCGTTGGGAC, the switch fluorescence ratio worked out at 0.979 ± 0.021.
The same measure for CACTTTGGTT: 1.02 ± 0.011; for TTTTTCTTCG: 1.21 ± 0.099.
The same measure for AGACGGAGGG: 1.015 ± 0.0017; for TAAAGGTCTT: 1.01 ± 0.016.
Turning to ACGGGGACGG, the switch fluorescence ratio is 1.03 ± 0.042.
The same measure for AAGGGCAAAT: 0.978 ± 0.015; for GGTTTTGACA: 0.9941 ± 0.0065; for TTGTTTGCCT: 1.04 ± 0.037.
The result for ATGATAGTCG reads 0.993 ± 0.013; that for TCTGAGATAA, 1.0208 ± 0.00085; that for TGGACGGAAG, 0.984 ± 0.018.
On to AAACGTGAGT, for which the switch fluorescence ratio came to 0.985 ± 0.01.
Regarding ATGTGCGCAC, the switch fluorescence ratio came to 1.002 ± 0.0023.
The same measure for TCCATCTTTT: 0.999 ± 0.014.
The same measure for GGATTTGGGG: 0.9878 ± 0.0073; for AAAGTTATAC: 1.12 ± 0.037.
Take AGGTTGGGGG: the switch fluorescence ratio is 0.981 ± 0.013.
Regarding TTGATGACGG, the switch fluorescence ratio amounted to 0.9872 ± 0.0016.
The result for CCTAGAGAGG reads 1.031 ± 0.006.
The same measure for GTTTGATGGG: 0.981 ± 0.033; for TGCCCGGGGT: 1.05 ± 0.036; for CTGTTGGGGT: 0.988 ± 0.017.
The same measure for CGGGAGGGTT: 1 ± 0.02; for GGGGCTTACG: 0.9893 ± 0.0087; for ACCGGAGGGG: 1.17 ± 0.26.
CATTGAAGAG: the switch fluorescence ratio was 0.998 ± 0.013.
Take TATGGGGGTG: the switch fluorescence ratio came out at 1.05 ± 0.043.
The result for GCTTATGAAC reads 1.019 ± 0.0045; that for TTTTAGAAAT, 1.98 ± 1.3; that for TTTGGTTGAC, 1.02 ± 0.053.
The same measure for AAGGGATAGG: 0.9844 ± 0.001; for TATCGGGAGC: 0.986 ± 0.026.
As to TAGGGTTTTC, the switch fluorescence ratio came out at 0.988 ± 0.045.
The result for TAATGTGGTT reads 0.989 ± 0.033; that for CGCTTTTCGT, 1.0023 ± 8e-05.
The same measure for GACATAGTGG: 1.006 ± 0.0012; for TAAGTGGAAT: 0.999 ± 0.022.
The result for CATACTTCAT reads 1.049 ± 0.0063; that for GAGAAATGAT, 0.984 ± 0.0087.
On to AGGTTGGATT, for which the switch fluorescence ratio worked out at 0.9706 ± 0.0039.
The result for TTTCTAAGTC reads 0.9559 ± 0.006.
The result for TACAGGGAAC reads 0.974 ± 0.014; that for CGCGACCATT, 0.967 ± 0.051.
The result for CCCGGCCATT reads 1.05 ± 0.013.
For the sequence ATGAATTGGT, the switch fluorescence ratio is 1.01 ± 0.019.
The result for TTCCTTGGTA reads 1.04 ± 0.038; that for CGGGGTCCTA, 1.01 ± 0.014; that for TTCCGGGTTT, 1.2 ± 0.31.
With TATTGTTATG, the switch fluorescence ratio came to 1 ± 0.028.
The same measure for TCCTTTAATC: 1.98 ± 1.4.
The same measure for CGTAGGTGTG: 1.02 ± 0.021; for AAATGCCGTT: 0.982 ± 0.015.
The same measure for AGTTCGTTA: 0.9861 ± 0.0056.
For the sequence CATCGTGGTT, the switch fluorescence ratio is 0.9778 ± 0.0043.
The same measure for GAGAAAGCAG: 0.977 ± 0.025; for TCCAGTAATA: 1.17 ± 0.19.
The same measure for GGTGATGTGT: 1.004 ± 0.0075; for CAGGGTGGTA: 0.9934 ± 0.0048.
The same measure for TTTGTGGTCT: 0.991 ± 0.032; for GGTTGGTTTT: 0.992 ± 0.024.
